# Data: the nanobody polyreactivity screen of Harvey et al. (2022)
# Experiment: yeast display, Sf9 membrane polyspecificity reagent, FACS + sequencing; frameworks hold sequencing errors
# Outline: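 Synthetic nanobody libraries on Saccharomyces cerevisiae BJ5465 were galactose-induced for 36–48 hours, stained 1 hour at 4 °C with 10% biotinylated, detergent-solubilized Sf9 membrane reagent and enriched on streptavidin microbeads. FACS then separated cells into low and high (top ~1%) gates by anti-HA (expression) and streptavidin (reagent binding) fluorescence. Genes were colony-PCR amplified, MiSeq 2 × 250 sequenced and CDR-length filtered. A clone's polyreactivity label is that of its gate of origin.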
row,Sequence,polyreactivity (PSR sort gate)
1,QVQLVESGGGLVQAGGSLRLSCAASGRSFSRNAMGWYRQAPGTERELVAGISSGGSTNYADSVKGRFTISPDTAKNTVYIQMNSLKPEDTAVYYCAKDSAEFVTRYDYWGQGTQVTLSS,low polyreactivity
2,QVQLVESGGGLVQAGGSLRLSCAASGRSFYGYAMGWYRQAPGKERELVARISGGGRTYYADSVKGRFTISRDNAKNTVYLQMNSLNPEDTAVYYCAAVYRSTWYGFTGSVGTFDYWGQGTQVTVSS,high polyreactivity
3,QVQLVESGGGLVQAGGSLRLSCAASGRSFYTNAMGWYRPAPGKERELLAAIRRSGTSTYYADSVKGRFTISRDNAYNTVYLQMNSLKPEDTAVYYCAALRSLLYRTYGYWGLGTQVTVSS,low polyreactivity
4,QVQLVESGGGLVQAGGSLRLSCAASGRSYRRNTMGWYRQAPGKERELVAAISNRGTSTYYADSVKGRFTISRDNEKNTVYLLMNSLKPEDTAVYYCAARGVRSYFFPYNYWGQGTQVTVSS,high polyreactivity
5,QVQLVESGGGLVQAGGSLRLSCAASGRTCSNYAMGWYRQAPGKERELVAAISYSVGSTYYADSVKGRFTIARDNAKNTVYLQMNSLKPEDTAVYYCNAKSRPHYAWYRYDYWGQGTQVTVSS,high polyreactivity
6,QVQLVESGGGLVQAGGSLRLSCAASGRTCSRYAMGLYRQAPGKERELFAAISKSSGTTSYADSVKGRFSISRDNAKNTVYLQMIRLNPEDTAVYYFAAGITGRYYGVRFSEDYWGQGTQVTVSS,high polyreactivity
7,QVQLVESGGGLVQAGGSLRLSCAASGRTCYINAMGWYRQAPGKERELVAAISSGGSTNYADSVKGRFTISRDNAKNTVYLQMNSLKPEDTAVYYCNAKYYQGTPVELDYWGQATQVTVSS,low polyreactivity
8,QVQLVESGGGLVQAGGSLRLSCAASGRTDFNTMGWYRQAPGKERELVAAITSTGRTYYADSVKGRFTISRDNAKNTVYLQMNSLKPEDTAVYFCAAVWRYKGLLLPSYYYWGQGTQVTVSS,high polyreactivity
9,QVQLVESGGGLVQAGGSLRLSCAASGRTFAAYAMGWYRQAPGKERELVAAIRRGGTTNYADSVKGRFTISRDNAKNTVYLQMNSLKPEDTAVYYCAALAPYSRSWVTYDYWGQGSQVTVSS,low polyreactivity
10,QVQLVESGGGLVQAGGSLRLSCAASGRTFAAYAMGWYRQAPGKERELVAAIRRGGTTNYADSVKGRFTISRDNAKNTVYLQMNSLKPEDTAVYYCAALAPYSRSWVTYDYWGQGTQVTVSS,low polyreactivity
11,QVQLVESGGGLVQAGGSLRLSCAASGRTFADNAMGWYRQAPGKERELVASISSGTSTNYADSVKGRFTISRDNAKNTVYLQMNSLKPEDTAVYYCNAYGPIWYTAVLGVGRYYGWTDYWGQGTQVTVSS,low polyreactivity
12,QVQLVESGGGLVQAGGSLRLSCAASGRTFAFHDRGWYRQAPGNERELVAALTSVASTYYADSVKGRFTISRDNAKNTVYLQMNSLKPEDTAVYYCAADTRSLRPRYQLYGEDSWGQGTQVTVSS,low polyreactivity
13,QVQLVESGGGLVQAGGSLRLSCAASGRTFAFYAMGWYRQAPGKERELVASISSSGDRTYYADSVKGRFTISRDNAKNTVYLQMNSLKPEDTAVYYCAARWSYTYYYWGQGTQVTVSS,high polyreactivity
14,QVQLVESGGGLVQAGGSLRLSCAASGRTFAFYAMGWYRQAPGKERELVAVITKSGGITYYADSVKGRFTISRDNAKNTVYLQMKSLKPEDTAVYYCAADYRYTPNYLYYYWGQGTQVTVSS,low polyreactivity
15,QVQLVESGGGLVQAGGSLRLSCAASGRTFAFYGMGWYRQAPGKERELVATIRGTGGSTYYADSVKGRFTISRDNAKNTVYLQMNSLKPEDTAVYYCNKYLGIQVGSVPHDYWGQGSQVTVSS,high polyreactivity
16,QVQLVESGGGLVQAGGSLRLSCAASGRTFAGYAMGWYRQAPGKERELVATISRNGGSTYYADSVKGRFTISRDNAKNTVYLQMNSLKPEDTAVYYCAADRRGVVRFSRYRGIYDYWGQGTQVTVSS,high polyreactivity
17,QVQLVESGGGLVQAGGSLRLSCAASGRTFAHYAMGWYRQAPGKERELVAVITSGGITYYADSVKGRFTISRDNAKNTVYLQMNSLKPEDTAVYYCNVYSYYYSYGSPYDYWGQGTQVTVSS,high polyreactivity
18,QVQLVESGGGLVQAGGSLRLSCAASGRTFAIYAMGWYRQAPGKERELVAAISGSGGSTYYADSVKGRFTISRDNAKNTVYLQMNSLKPEDTAVYYCAKRVRGHRYDYWGQGTQVTVSS,high polyreactivity
19,QVQLVESGGGLVQAGGSLRLSCAASGRTFAIYAMGWYRQAPGKERELVATIRGGSTYYADSVKGRFTISRDNAKNTVYLQMNSLKPEDTAVYYCAAEFLYASVYYSYWGQGTQVTVSS,high polyreactivity
20,QVQLVESGGGLVQAGGSLRLSCAASGRTFAIYAMGWYRQAPGKERELVAVINYSGDRTYYADSVKGRFTISRDNAKNTVYLQMNSLKPEDTAVYYCAAVLEYTSDYLSGENDYWGQGTQVTVSS,low polyreactivity
21,QVQLVESGGGLVQAGGSLRLSCAASGRTFAKSAMGWSRQAPGKERELVAAIRWSGGSTYYADSVKARFTISRDNAKNTVYLQMNSLKPEDTAVYYCATERFLLGLGYDYWGQGTQVTVSS,high polyreactivity
22,QVQLVESGGGLVQAGGSLRLSCAASGRTFAKYAMAWYRQAPGKERELVAAINSSGGSTYYADSVKGRFTISRDNAKNTVYLQMNSLKPEDTAVYFCAALGIGSYRRYSGYDYWGQGTQVTVSS,low polyreactivity

row,Sequence,polyreactivity (PSR sort gate)
1,QVQLVESGGGLVQAGGSLRLSCAASGRTFAKYAMGLYRQAPGKERELVAAITRGDTTNYADSVKGRFTISRDNAKNTVYLQMNSLKPEDTAVYYCAATPDPPHTYEYWGQGTQVTVSS,low polyreactivity
2,QVQLVESGGGLVQAGGSLRLSCAASGRTFAKYAMGWYRQAPGKERELVAAITSGGRTNYADSVKGRFTISRDNAKNTVYLQMNSLKPEDTAVYYCAARRYVVGYFQSKMDYWGQGTQVTVSS,high polyreactivity
3,QVQLVESGGGLVQAGGSLRLSCAASGRTFANNAMGWYRQAPGKERELVAAISFSTVSTYYADSVKGRFTISRDNAKYTVYLQMNSLKPEDTAVYYCAARRLGYYRKVKELVYWGQGTQVTVSS,high polyreactivity
4,QVQLVESGGGLVQAGGSLRLSCAASGRTFAPYAMGWYRQAPGKERELVAAISWSGGSTYYADSVKGRFTISRDNAKNTVYLQMNSLKPEDTAVYYCAADGGQTEFDYWGQGTQVTVSS,high polyreactivity
5,QVQLVESGGGLVQAGGSLRLSCAASGRTFAPYAMGWYRQAPGKERQLVAAISQRGGSTYYADSVKGRFTISRDNAKNTVYLQMNSLKPEDTAIYYCAATKYFYRLSSAFSFGTYGYWGQGTQVTVSS,low polyreactivity
6,QVQLVESGGGLVQAGGSLRLSCAASGRTFAPYVMGWYRQAPGKERELVAAITLSGDSTDYADSVKGRFTISRDNAKNTVYLQMNSLKPEDTAVYYCNVEYLSYTSYFHYYEYDYWGQGSQVTVSS,low polyreactivity
7,QVQLVESGGGLVQAGGSLRLSCAASGRTFAQYGMVWYRQAPGKEMELVAAISRRTGSTNYADSVKGRFTISRDNAKNTVYLQMNSLKPEDTAVYYCAARSYSYGVGYGYWGQGTQVTVSS,high polyreactivity
8,QVQLVESGGGLVQAGGSLRLSCAASGRTFARNAMGWYRQAPGKERELVASINRGGRTNYADSVKGRFTISRDNAKNTVYLQMNSLKPEDTAVYYCAKYILGVGPFFSTYDYWGQGTQVTVSS,high polyreactivity
9,QVQLVESGGGLVQAGGSLRLSCAASGRTFARYALGWYRQAPGKERELVAAISWSGGSTYYADSVKGRFTISRDNAKNTVYLQMNSLKPEDTAVDYCAAGYGARSAKFDVYGTNEGDYWGQGTQVTVSS,high polyreactivity
10,QVQLVESGGGLVQAGGSLRLSCAASGRTFARYAMGWYRQAPGKEREFVAGINWSGGGTYYADSVKGRFTISRDNAKNTVYLQMNSLKPEDTAVYYCASYTSVRPKLDYWGLGTQVTVSS,high polyreactivity
11,QVQLVESGGGLVQAGGSLRLSCAASGRTFARYAMGWYRQAPGKERELVAAINRSGGSTYYADSVKGRFTISRDNAKNTVYLQMNSLKPEDTAVYYCNARDPYTYRYSYYYWGQGTQVTVSS,high polyreactivity
12,QVQLVESGGGLVQAGGSLRLSCAASGRTFARYAMGWYRQAPGKERELVAAISSSGGSTYYADSVKGRFTISRDNAKNTVYLQMNSLKQEDTAVYYCVTYRNWWYDYWGQGTQVTVSS,high polyreactivity
13,QVQLVESGGGLVQAGGSLRLSCAASGRTFASNAMGWYRQAPGKERELVAAITRGGSTYYADSVKGRFTISRDNAKNTVYLQMNSLKPEDTAVYYCAADRWWYQNEVDYWGQGTQVTVSS,low polyreactivity
14,QVQLVESGGGLVQAGGSLRLSCAASGRTFASYAMGWYRQAPGKERDFVASISRRGGSTNYADSVKGRFTISRDNAKNTVYLQMNSLIPEDNAVYYCAKRFTLPLSEYDYWGQGTQVTVSS,high polyreactivity
15,QVQLVESGGGLVQAGGSLRLSCAASGRTFASYAMGWYRQAPGKERELVAGITSGGNTYYADSVKGRFTISRDNAKNTVYLQMNSLKPEDTAVYYCNAVRRVSSAGEFDYWGQGTQVTVSS,high polyreactivity
16,QVQLVESGGGLVQAGGSLRLSCAASGRTFASYTMGWYRQAPGKERELVAAISRGGNTYYADSVKGRFTISRDNAKNTVYLQMNSLKPEDTAVYYCAATAVKYDRRFYYWGQGTQVTVSS,high polyreactivity
17,QVQLVESGGGLVQAGGSLRLSCAASGRTFATYAMGWYRQAPGKEREFVAVIDGSGGSTYYADSVKGRFTISRDNAKNTVYLQMNSLKPEDTAVYYCAATSRRKVPNIRKSYGYWGQGTQVTVSS,high polyreactivity
18,QVQLVESGGGLVQAGGSLRLSCAASGRTFATYVMGWYRQAPGKERELVAAISLSGGSTYYADSVKGRFTISRDNAKNTVFLQMNSVKPEDTAVYYCAISWVTSSDYWGQGTQVTVSS,low polyreactivity
19,QVQLVESGGGLVQAGGSLRLSCAASGRTFAVNAMGWYRQAPGTERELVAAISLSGGRTYYADSVKGRFTISRDNAKNTVSLQMNSLKPEDTAVYYCAASRHFARHRGYYFRYDYWGQGTQVTVSS,high polyreactivity
20,QVQLVESGGGLVQAGGSLRLSCAASGRTFAVYAMGWYRQAPGKERELVAAISSTGGTYYADSVKGRFTISRDNAKNTVYLQMNSLKPEDTAVYYCAATFIQVVVNVQLYDYDYWGQGTQVTVSS,low polyreactivity
21,QVQLVESGGGLVQAGGSLRLSCAASGRTFAWYTMGWYRQAPGKERELVAAISGSGGSTYYADSVKGRFTISRDNAKNTVYLQMNSLKPEDTAVYYCSRRVDSYYGHTRYYYWGQGTQVTVSS,high polyreactivity
